# Results as given in publication PMC2937569 (Biochemistry, 2010).
# B1: wild-type (WT) RDS (retinal degeneration slow; Peripherin/rds), recombinant in COS-1 cells (natural protein, murine, UniProt P15499 1-346, looked up)
# chain: MALLKVKFDQKKRVKLAQGLWLMNWLSVLAGIVLFSLGLFLKIELRKRSEVMNNSESHFVPNSLIGVGVLSCVFNSLAGKICYDALDPAKYAKWKPWLKPYLAVCIFFNVILFLVALCCFLLRGSLESTLAYGLKNGMKYYRDTDTPGRCFMKKTIDMLQIEFKCCGNNGFRDWFEIQWISNRYLDFSSKEVKDRIKSNVDGRYLVDGVPFSCCNPSSPRPCIQYQLTNNSAHYSYDHQTEELNLWLRGCRAALLNYYSSLMNSMGVVTLLVWLFEVSITAGLRYLHTALESVSNPEDPECESEGWLLEKSVPETWKAFLESFKKLGKSNQVEAEGADAGPAPEAG
# B2: N244H RDS, recombinant in COS-1 cells (natural protein, murine, UniProt P15499 1-346, looked up)
# chain: MALLKVKFDQKKRVKLAQGLWLMNWLSVLAGIVLFSLGLFLKIELRKRSEVMNNSESHFVPNSLIGVGVLSCVFNSLAGKICYDALDPAKYAKWKPWLKPYLAVCIFFNVILFLVALCCFLLRGSLESTLAYGLKNGMKYYRDTDTPGRCFMKKTIDMLQIEFKCCGNNGFRDWFEIQWISNRYLDFSSKEVKDRIKSNVDGRYLVDGVPFSCCNPSSPRPCIQYQLTNNSAHYSYDHQTEELHLWLRGCRAALLNYYSSLMNSMGVVTLLVWLFEVSITAGLRYLHTALESVSNPEDPECESEGWLLEKSVPETWKAFLESFKKLGKSNQVEAEGADAGPAPEAG
# B3: N244K RDS, recombinant in COS-1 cells (natural protein, murine, UniProt P15499 1-346, looked up)
# chain: MALLKVKFDQKKRVKLAQGLWLMNWLSVLAGIVLFSLGLFLKIELRKRSEVMNNSESHFVPNSLIGVGVLSCVFNSLAGKICYDALDPAKYAKWKPWLKPYLAVCIFFNVILFLVALCCFLLRGSLESTLAYGLKNGMKYYRDTDTPGRCFMKKTIDMLQIEFKCCGNNGFRDWFEIQWISNRYLDFSSKEVKDRIKSNVDGRYLVDGVPFSCCNPSSPRPCIQYQLTNNSAHYSYDHQTEELKLWLRGCRAALLNYYSSLMNSMGVVTLLVWLFEVSITAGLRYLHTALESVSNPEDPECESEGWLLEKSVPETWKAFLESFKKLGKSNQVEAEGADAGPAPEAG
# Tests used:
# [1] = molecular target: the molecule itself; experiment: non-reducing SDS-PAGE/Western blot
# [2] = molecular target: the molecule itself; experiment: velocity sedimentation on a sucrose gradient
Protein,stoichiometry N [1],stoichiometry N [2]
B1,2,4
B2,2,4
B3,,4
